In article doi:10.1101/2025.07.14.664640 (bioRxiv, 2025):

Biological target: T1, MBP-HS1BP3 full length (UniProt Q53T59 1-392)
T1 sequence (looked up): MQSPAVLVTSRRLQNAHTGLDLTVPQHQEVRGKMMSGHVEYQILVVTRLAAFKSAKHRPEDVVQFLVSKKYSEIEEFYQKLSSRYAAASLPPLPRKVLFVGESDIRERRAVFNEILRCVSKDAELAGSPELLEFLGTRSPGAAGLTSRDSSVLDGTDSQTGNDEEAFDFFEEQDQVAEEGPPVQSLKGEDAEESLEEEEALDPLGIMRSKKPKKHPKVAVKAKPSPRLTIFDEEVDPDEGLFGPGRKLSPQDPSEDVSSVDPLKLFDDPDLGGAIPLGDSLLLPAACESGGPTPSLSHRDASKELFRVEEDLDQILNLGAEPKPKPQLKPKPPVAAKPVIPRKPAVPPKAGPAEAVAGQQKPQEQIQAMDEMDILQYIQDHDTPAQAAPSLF
Assay: pull-down

binding result: binds
B1: GST-SH3 (SH3 domain of cortactin fused to GST) (domain or fragment)
chain: not shown
